The assay deals with SH2B (human) (UniProt Q9NRF2). Description: ITC. (Isothermal titration calorimetry measures the heat released or taken up as one component is titrated into another.)

JAK2 pY813 peptide came in with a Ka of 1.45e+06 M⁻¹, a dissociation constant Kd of 690 nM and a stoichiometry N of 0.79.

Broadly, the Kd is a measure of binding affinity in units of concentration. In general, stoichiometry N refers to the number of molecules, sites or subunits per partner or assembly.

(Values after paper PMC8640019.)
